Key:
Assay in all cases: BLI
[1] = target: H7 AN13 HA trimer (A/Anhui/1/2013) (influenza A virus A/Anhui/1/2013 (H7N9))
[2] = target: H5 VN04 HA trimer (A/Vietnam/1203/2004) (influenza A virus A/Vietnam/1203/2004 …)
H1 CA09 stem = target: H1 CA09 stem
[3] = target: H6 HA (recombinant, Figure 4e) (influenza A virus (H6 subtype, strain …))
[4] = target: H10 JD13 HA trimer (A/Jiangxi-Donghu/346/2013, H10N8) (influenza A virus …)
[5] = target: H1 HA (recombinant, Figure 4e) (influenza A virus (H1 subtype, strain …))

B1: 789-203-3C12 Fab (Fab, V domains shown)
VH: QVQLQESGPGLVKPSEILSLTCAVSGGSFSSYCWGWIRQPPGKGLEWIGSICGSGGSNYLNPSLKSRVTLSVDTSKNQFSLILNSVTAADTAVYYCAREGITIFGVVIPRVLDSWGQGAVVTVSS
VL: DIQMTQSPSSLSASVGDTVTITCRASQSISSWLAWYQQKPGKAPNLLIYRASTLQSGVPSRFSGSGSGTDFTLTISSLQSEDFATYFCQQSTSSPFTFGPGTKLDIK
- Kd [1]: 534 nM
- Kd [2]: 151 nM
- Kd (H1 CA09 stem): 5.66 nM
- Kd [3]: 27.5 nM
- Kd [4]: 81.6 nM
- Kd [5]: 6.59 nM

Reference: paper doi:10.1101/2022.02.11.480115 (2022)
